We go through 15 molecules from patent publication US20170209529A1 (BRIGHAM AND WOMEN S HOSPITAL, published 2017).

By Kd is commonly meant the free concentration of one partner at which half of the binding sites on the other are occupied at equilibrium, for simple one-to-one binding. A low value points to higher affinity.

For assay [1], the target named is T1, soluble human FcRn (shFcRn) (human, UniProt P55899 24-297; P61769 21-119).
T1 construct: For crystallography it was expressed in CHOK1SV cells and deglycosylated with PNGaseF; biotinylated for phage selection; also called hFcRn/β2m; FcRn-biotin
T1 sequence (P55899 24-297 limits assumed, chain 1 of 2): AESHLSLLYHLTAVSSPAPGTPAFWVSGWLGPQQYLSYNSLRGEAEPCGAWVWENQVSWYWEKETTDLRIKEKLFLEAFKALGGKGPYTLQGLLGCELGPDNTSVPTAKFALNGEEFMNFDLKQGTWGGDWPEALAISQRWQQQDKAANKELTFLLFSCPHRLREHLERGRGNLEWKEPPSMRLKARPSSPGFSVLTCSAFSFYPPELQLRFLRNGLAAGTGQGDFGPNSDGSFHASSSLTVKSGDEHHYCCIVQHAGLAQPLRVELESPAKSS
T1 sequence (P61769 21-119 limits assumed, chain 2 of 2): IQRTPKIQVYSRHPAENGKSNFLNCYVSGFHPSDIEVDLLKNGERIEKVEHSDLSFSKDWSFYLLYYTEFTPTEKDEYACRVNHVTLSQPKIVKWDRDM
The assay is described as follows: SPR (Biacore), immobilized shFcRn, pH 7.4. (In general: Surface plasmon resonance follows binding to a sensor surface in real time, without labels.)

Assay [2] concerns the target T1, soluble human FcRn (shFcRn). The assay is described as follows: SPR (Biacore), Kd pH 7.4 divided by Kd pH 6.0.
Assay [3] has the same target. Briefly: SPR (Biacore), immobilized shFcRn, pH 6, steady-state fit.

Values joined by “and” are separate entries in the source; they are usually repeats but may differ in a detail not shown here. Equal values may be shown once. Bridge positions count the residues as written; N and C are the ends.

Take Ac-VMKCWWDEEMLCRAF-NH2 (disulfide 4-12 (inferred)) [SYN1532]: the results for the dissociation constant Kd in assay [1] and in assay [3] were 17300 nM and 154 nM, respectively. Further, in assay [2], the “Kd Ratio 7.4/6.0” value stood at 112.

For the molecule Ac-VMKCFWDEEMLCRAF-NH2 (disulfide 4-12 (inferred)) [SYN1535], the dissociation constant (Kd) came out at 91300 nM in assay [1] and 2600 nM in assay [3]. The “Kd Ratio 7.4/6.0” value in assay [2] is 35.

On to Ac-VMRCWWDEEMLCRAF-NH2 (disulfide 4-12 (inferred)) [SYN1534], for which the Kd worked out at 20200 nM in assay [1] and 162 nM in assay [3]. For the same molecule, in assay [2], the “Kd Ratio 7.4/6.0” value came to 125.

As to Ac-VMHCWWDEEMLCRAF-NH2 (disulfide 4-12 (inferred)) [SYN1533], the Kd in assay [1] is 59100 nM; in assay [3], 558 nM. In assay [2], the “Kd Ratio 7.4/6.0” value amounted to 106.

Turning to Ac-VMKCWWDEEMLCRAV-NH2 (disulfide 4-12 (inferred); not fully specified) [SYN1540B], the Kd in assay [3] was found to be 702 nM.

On to Ac-AMTCKWDDGFSCEYV-NH2 (disulfide 4-12 (inferred)) [SYN1144], for which the figures for the Kd in assay [1] and in assay [3] were 29100 nM and 1250 nM, respectively. Moreover, the “Kd Ratio 7.4/6.0” value in assay [2] turned out to be 23.3.

On to Ac-YMTCKWDDAFSCEYV-NH2 (disulfide 4-12 (inferred)) [SYN1151], for which the Kd in assay [1] is 20700 nM; in assay [3], 1500 nM and 830 nM. Moreover, the “Kd Ratio 7.4/6.0” value in assay [2] is 25.

Turning to Ac-YMTCKWDDGFSCEYA-NH2 (disulfide 4-12 (inferred)) [SYN1156], the dissociation constant Kd worked out at 22000 nM in assay [1] and 580 nM in assay [3]. For the same molecule, the “Kd Ratio 7.4/6.0” value in assay [2] was determined as 38.

Consider Ac-YMTCKWADGFSCEYV-NH2 (disulfide 4-12 (inferred)) [SYN1149], for which the Kd in assay [1] stood at 12000 nM; in assay [3], 1540 nM. Also, the “Kd Ratio 7.4/6.0” value in assay [2] was determined as 7.8.

For Ac-YMTCKWDDGFSCAYV-NH2 (disulfide 4-12 (inferred)) [SYN1154], the equilibrium dissociation constant (Kd) in assay [1] is 9200 nM. The “Kd Ratio 7.4/6.0” value in assay [2] was 20.

For the molecule Ac-YMTCKWDDGFSCEAV-NH2 (disulfide 4-12 (inferred)) [SYN1155], the Kd turned out to be 17300 nM in assay [1] and 1760 nM in assay [3]. Also, the “Kd Ratio 7.4/6.0” value in assay [2] is 9.8.

For the molecule Ac-MTCKWDDGFSCEYV-NH2 (disulfide 3-11 (inferred)) [SYN1161], in assay [3], the Kd is 1210 nM and 1170 nM.

Regarding Ac-VMACFWDEEFKCDQG-NH2 (disulfide 4-12 (inferred)) [SYN1215], binding in assay [3] was put at a Kd of 2840 nM.

With Ac-VMHCFWDEGFKCDQG-NH2 (disulfide 4-12 (inferred)) [SYN1257], the dissociation constant (Kd) in assay [1] is 40000 nM; in assay [3], 1450 nM.

As for Ac-AGVMKCWWDEEMLCRAFGTGGGK-NH2 (disulfide 6-14 (inferred)) [SYN531], the Kd in assay [1] was 44400 nM; in assay [3] it was 450 nM and 300 nM. Further, the “Kd Ratio 7.4/6.0” value in assay [2] turned out to be 99.
